Tests used:
[1] = tested on: ZFP7264 (host, center linker TGSQKP) (artificial); assay: ELONA; conditions: normalized ELISA score
[2] = tested on: ZFP7264 linker 1e center linker F2-F3 TGSQKP replaced by TVPRPTPPKP (artificial); assay: ELONA; conditions: normalized ELISA score
[3] = tested on: ZFP7264 linker TKHGTPKHREDKP (artificial)
[4] = tested on: ZFP7264 linker TLPLPRPKP (artificial)
[5] = tested on: ZFP7264 linker TGLPKPKP (artificial)
[6] = tested on: ZFP7264 linker LRQKDERP (artificial)
[7] = tested on: ZFP7264 linker TLPPCFRPKP (artificial)
[8] = tested on: ZFP7264 linker TGEGGKP (artificial)
[9] = tested on: ZFP7264 linker TSRPRPKP (artificial)
[10] = tested on: ZFP7264 linker TGGGGSQKP (artificial)
[11] = tested on: ZFP7263 linker TPRPPIPKP center linker F2-F3 TGSQKP replaced by TPRPPIPKP (artificial); assay: ELONA; conditions: normalized ELISA score
[12] = tested on: ZFP7263 linker TGGGGSQKP center linker F2-F3 TGSQKP replaced by TGGGGSQKP (artificial); assay: ELONA; conditions: normalized ELISA score
[13] = tested on: ZFP7263 linker LRQKDERP center linker F2-F3 TGSQKP replaced by LRQKDERP (artificial); assay: ELONA; conditions: normalized ELISA score
[14] = tested on: ZFP7263 linker TGEGGKP center linker F2-F3 TGSQKP replaced by TGEGGKP (artificial); assay: ELONA; conditions: normalized ELISA score
[15] = tested on: ZFP7263 linker TPNRCPPTKP center linker F2-F3 TGSQKP replaced by TPNRCPPTKP (artificial); assay: ELONA; conditions: normalized ELISA score
[16] = tested on: ZFP7263 linker TPLCQRPMKQKP center linker F2-F3 TGSQKP replaced by TPLCQRPMKQKP (artificial); assay: ELONA; conditions: normalized ELISA score
[17] = tested on: ZFP7263 linker TQRPQIPPKP center linker F2-F3 TGSQKP replaced by TQRPQIPPKP (artificial); assay: ELONA; conditions: normalized ELISA score
[18] = tested on: ZFP7263 (host, center linker TGSQKP) (artificial); assay: ELONA
[19] = tested on: ZFP7263 linker TYPRPLLAKP center linker F2-F3 TGSQKP replaced by TYPRPLLAKP (artificial); assay: ELONA; conditions: normalized ELISA score
[20] = tested on: ZFP8196 linker LRQKDERP center linker F2-F3 TGEKP replaced by LRQKDERP (artificial); assay: ELONA; conditions: normalized ELISA score
[21] = tested on: ZFP8196 linker TPGLHRPKP center linker F2-F3 TGEKP replaced by TPGLHRPKP (artificial); assay: ELONA; conditions: normalized ELISA score
[22] = tested on: ZFP8196 linker TPDAPKPKP center linker F2-F3 TGEKP replaced by TPDAPKPKP (artificial); assay: ELONA; conditions: normalized ELISA score
[23] = tested on: ZFP8196 linker TPDRPISTCKP center linker F2-F3 TGEKP replaced by TPDRPISTCKP (artificial); assay: ELONA; conditions: normalized ELISA score
[24] = tested on: ZFP8196 linker 1c center linker F2-F3 TGEKP replaced by THPRAPIPKP (artificial); assay: ELONA; conditions: normalized ELISA score
[25] = tested on: ZFP8196 linker TSSPRSNAKP center linker F2-F3 TGEKP replaced by TSSPRSNAKP (artificial); assay: ELONA; conditions: normalized ELISA score
[26] = tested on: ZFP8196 linker TCPRPPTRKP center linker F2-F3 TGEKP replaced by TCPRPPTRKP (artificial); assay: ELONA; conditions: normalized ELISA score
[27] = tested on: ZFP8196 linker 1d center linker F2-F3 TGEKP replaced by TPNRRPAPKP (artificial); assay: ELONA; conditions: normalized ELISA score
[28] = tested on: ZFP8196 linker TGEGGKP center linker F2-F3 TGEKP replaced by TGEGGKP (artificial); assay: ELONA; conditions: normalized ELISA score
[29] = tested on: ZFP8196 linker TPSHTPRPKP center linker F2-F3 TGEKP replaced by TPSHTPRPKP (artificial); assay: ELONA; conditions: normalized ELISA score
[30] = tested on: ZFP8196 linker TEPRAKPPKP center linker F2-F3 TGEKP replaced by TEPRAKPPKP (artificial); assay: ELONA; conditions: normalized ELISA score
[31] = tested on: ZFP8196 linker TVSPAPCRSKP center linker F2-F3 TGEKP replaced by TVSPAPCRSKP (artificial); assay: ELONA; conditions: normalized ELISA score
[32] = tested on: ZFP8196 linker 1f center linker F2-F3 TGEKP replaced by TYPRPIAAKP (artificial); assay: ELONA; conditions: normalized ELISA score
[33] = tested on: ZFP8196 linker TSPRLPAPKP center linker F2-F3 TGEKP replaced by TSPRLPAPKP (artificial); assay: ELONA; conditions: normalized ELISA score
[34] = tested on: ZFP8196 (host, center linker TGEKP) (artificial); assay: ELONA; conditions: normalized ELISA score
[35] = tested on: ZFP8196 linker TGGGGSQKP center linker F2-F3 TGEKP replaced by TGGGGSQKP (artificial); assay: ELONA; conditions: normalized ELISA score
[36] = tested on: ZFP8196 linker TGYSIPRPKP center linker F2-F3 TGEKP replaced by TGYSIPRPKP (artificial); assay: ELONA; conditions: normalized ELISA score
[37] = tested on: ZFN7263 linker TPRPPIPKP center linker F2-F3 TGSQKP replaced by TPRPPIPKP (artificial); assay: cell_activity; conditions: normalized yeast MEL-1 score
[38] = tested on: ZFN7263 linker TPLCQRPMKQKP (artificial); assay: cell_activity; conditions: yeast, paired with 7264 ZFN
[39] = tested on: ZFN7263 linker TGGGGSQKP center linker F2-F3 TGSQKP replaced by TGGGGSQKP (artificial); assay: cell_activity; conditions: normalized yeast MEL-1 score
[40] = tested on: ZFN7263 linker TPNRCPPTKP (artificial); assay: cell_activity; conditions: yeast, paired with 7264 ZFN
[41] = tested on: ZFN7263 linker TYPRPLLAKP (artificial); assay: cell_activity; conditions: yeast, paired with 7264 ZFN
[42] = tested on: ZFN7263 (host) (artificial); assay: cell_activity; conditions: normalized yeast MEL-1 score
[43] = tested on: ZFN7263 linker TQRPQIPPKP (artificial); assay: cell_activity; conditions: yeast, paired with 7264 ZFN

For “TTAGTTAAAGCGTTGCTCCGAATATC (double strand) [7264 target gap TT]”, which binding signal [1] is on record?
Its binding signal is 0.

What about the binding signal [2] of the same sequence?
Its binding signal is 0.05.

And the binding signal (normalized ELISA) [3]?
Its binding signal (normalized ELISA) is 0.

What about the binding signal (normalized ELISA) [4] of the same sequence?
Its binding signal (normalized ELISA) is 0.04.

What about the binding signal (normalized ELISA) [5] of the same sequence?
Its binding signal (normalized ELISA) is 0.03.

What about the binding signal (normalized ELISA) [6] of the same sequence?
Its binding signal (normalized ELISA) is 0.02.

What about the binding signal (normalized ELISA) [7] of the same sequence?
Its binding signal (normalized ELISA) is 0.06.

And the binding signal (normalized ELISA) [8]?
Its binding signal (normalized ELISA) is 0.03.

What about the binding signal (normalized ELISA) [9] of the same sequence?
The binding signal (normalized ELISA) was 0.03.

What about the binding signal (normalized ELISA) [10] of the same sequence?
The binding signal (normalized ELISA) was 0.03.

How did the binding signal [11] turn out when “TTAGCCACTCTGTTGGAAGTGTATC (double strand) [7263 target gap T]” was run?
Its binding signal is 2.09.

And the binding signal [12]?
Its binding signal is 0.39.

And the binding signal [13]?
The binding signal was 0.13.

And the binding signal [14]?
Its binding signal is 0.04.

What about the binding signal [15] of the same sequence?
Its binding signal is 3.16.

What about the binding signal [16] of the same sequence?
The binding signal was 4.

And the binding signal [17]?
The binding signal was 3.05.

And the binding signal ([18]; normalized ELISA score)?
Its binding signal is 0.02.

And the binding signal [19]?
The binding signal was 3.97.

What does the source list for “TTAGATAAACTGTCAAAAGGCTATC (double strand) [8196 target gap T]”?
binding signal [20]: 0.08; binding signal [21]: 0.81; binding signal [22]: 0.95; binding signal [23]: 0.47; binding signal [24]: 0.6; binding signal [25]: 0.25; binding signal [26]: 0.62; binding signal [27]: 0.52; binding signal [28]: 0.03; binding signal [29]: 0.8; binding signal [30]: 0.93; binding signal [31]: 0.19; binding signal [32]: 0.64; binding signal [33]: 0.81; binding signal [34]: 0.01; binding signal [35]: 0; binding signal [36]: 0.55

“TTAGCCACTCTGTGGAAGTGTATC (double strand) [7263 target 0-bp gap]” was tested. Which binding signal [11] did it give?
The binding signal was 0.14.

And the binding signal [12]?
Its binding signal is 0.51.

And the binding signal [13]?
Its binding signal is 0.25.

And the binding signal [14]?
The binding signal was 1.3.

What about the binding signal [15] of the same sequence?
Its binding signal is 0.31.

And the binding signal [16]?
Its binding signal is 0.28.

What about the binding signal [17] of the same sequence?
Its binding signal is 0.15.

And the binding signal ([18]; ELISA normalized to host on 0-bp gap target (reference))?
The binding signal was 1.

What about the binding signal [19] of the same sequence?
The binding signal was 0.29.

What does the source list for “ACTCTGTTGGAAG (double strand) [7263 yeast half-site gap T]”?
activity [37]: 1.4; activity (normalized MEL-1) [38]: 1.19; activity [39]: 0.31; activity (normalized MEL-1) [40]: 1.59; activity (normalized MEL-1) [41]: 1.06; activity [42]: 0.06; activity (normalized MEL-1) [43]: 1.19
